Reference: the supplement of paper PMC11246515
± gives the standard deviation of the averaged measurements.

Assay: total protein half-life in vivo (active degradation + dilution); higher = more stable protein
[1] = E. coli NCM3722 delta-lon, growth: N-lim chemostat, doubling time 6 h
[2] = E. coli NCM3722 delta-smpB, growth: N-lim chemostat, doubling time 6 h
[3] = wild type E. coli NCM3722, growth: C-lim chemostat, doubling time 3 h
[4] = wild type E. coli NCM3722, growth: C-lim chemostat, doubling time 6 h
[5] = wild type E. coli NCM3722, growth: C-lim chemostat, doubling time 12 h
[6] = wild type E. coli NCM3722, growth: N-lim chemostat, doubling time 6 h
[7] = wild type E. coli NCM3722, growth: N-lim chemostat, doubling time 12 h
[8] = wild type E. coli NCM3722, growth: P-lim chemostat, doubling time 6 h
[9] = wild type E. coli NCM3722, growth: P-lim chemostat, doubling time 12 h
[10] = E. coli NCM3722 delta-clpP delta-lon delta-hslV, growth: N-lim chemostat, doubling time 6 h
[11] = E. coli NCM3722 delta-clpP, growth: N-lim chemostat, doubling time 6 h
[12] = E. coli NCM3722 delta-hslV, growth: N-lim chemostat, doubling time 6 h

With “MAESFTTTNRYFDNKHYPRGFSRHGDFTIKEAQLLERHGYAFNELDLGKREPVTEEEKLFVAVCRGEREPVTEAERVWSKYMTRIKRPKRFHTLSGGKPQVEGAEDYTDSDD [P0ADN2]” as the sequence, how does the “total protein half-life in vivo” value [1] read?
The value was 5.14 ± 0.96 h.

And the “total protein half-life in vivo” value [2]?
The value was 3.28 ± 0.088 h.

What about the “total protein half-life in vivo” value [3] of the same sequence?
The value was 2.19 ± 0.043 h.

And the “total protein half-life in vivo” value [4]?
Its value is 4.55 ± 0.35 h.

What about the “total protein half-life in vivo” value [5] of the same sequence?
The value was 5.73 h.

And the “total protein half-life in vivo” value [6]?
Its value is 3.09 ± 0.15 h.

And the “total protein half-life in vivo” value [7]?
Its value is 5.68 ± 0.092 h.

What about the “total protein half-life in vivo” value [8] of the same sequence?
The value was 3.14 ± 0.43 h.

What about the “total protein half-life in vivo” value [9] of the same sequence?
The value was 5.53 ± 0.6 h.

Which “total protein half-life in vivo” value [10] does the source give for “MAETKIVVGPQPFSVGEEYPWLAERDEDGAVVTFTGKVRNHNLGDSVNALTLEHYPGMTEKALAEIVDEARNRWPLGRVTVIHRIGELWPGDEIVFVGVTSAHRSSAFEAGQFIMDYLKTRAPFWKREATPEGDRWVEARESDQQAAKRW” here?
Its value is 4.68 ± 0.7 h.

What about the “total protein half-life in vivo” value [11] of the same sequence?
The value was 3.99 ± 0.26 h.

And the “total protein half-life in vivo” value [12]?
Its value is 5.32 ± 0.47 h.

What about the “total protein half-life in vivo” value [1] of the same sequence?
Its value is 4.42 ± 0.088 h.

And the “total protein half-life in vivo” value [2]?
Its value is 3.5 ± 0.33 h.

And the “total protein half-life in vivo” value [3]?
The value was 2.7 ± 0.15 h.

What about the “total protein half-life in vivo” value [4] of the same sequence?
The value was 5.78 ± 0.33 h.

What about the “total protein half-life in vivo” value [5] of the same sequence?
The value was 8.46 ± 0.13 h.

And the “total protein half-life in vivo” value [6]?
The value was 4.573 ± 0.012 h.

And the “total protein half-life in vivo” value [7]?
Its value is 6.78 h.

And the “total protein half-life in vivo” value [8]?
The value was 6.8 ± 1.3 h.

And the “total protein half-life in vivo” value [9]?
Its value is 11.1 ± 0.62 h.

Which “total protein half-life in vivo” value [10] does the source give for “MAEWSGEYISPYAEHGKKSEQVKKITVSIPLKVLKILTDERTRRQVNNLRHATNSELLCEAFLHAFTGQPLPDDADLRKERSDEIPEAAKEIMREMGINPETWEY [P0A8U6]” here?
Its value is over 8 h.

What about the “total protein half-life in vivo” value [11] of the same sequence?
The value was 5.7 h.

And the “total protein half-life in vivo” value [12]?
The value was 5.96 ± 0.098 h.

And the “total protein half-life in vivo” value [1]?
Its value is 6.2 ± 0.13 h.

And the “total protein half-life in vivo” value [2]?
The value was 6.26 ± 0.61 h.

What about the “total protein half-life in vivo” value [3] of the same sequence?
Its value is 3.19 ± 0.061 h.

And the “total protein half-life in vivo” value [4]?
The value was 5.63 ± 0.29 h.

And the “total protein half-life in vivo” value [5]?
Its value is 6.09 h.

And the “total protein half-life in vivo” value [6]?
The value was 4.87 ± 0.35 h.

What about the “total protein half-life in vivo” value [7] of the same sequence?
Its value is 10.7 ± 6.7 h.

And the “total protein half-life in vivo” value [8]?
The value was 4.35 ± 0.99 h.

And the “total protein half-life in vivo” value [9]?
Its value is 12 ± 4.2 h.

Which results are given for “MAFKFKTFAAVGALIGSLALVGCGQDEKDPNHIKVGVIVGAEQQVAEVAQKVAKDKYGLDVELVTFNDYVLPNEALSKGDIDANAFQHKPYLDQQLKDRGYKLVAVGNTFVYPIAGYSKKIKSLDELQDGSQVAVPNDPTNLGRSLLLLQKVGLIKLKDGVGLLPTVLDVVENPKNLKIVELEAPQLPRSLDDAQIALAVINTTYASQIGLTPAKDGIFVEDKESPYVNLIVTREDNKDAENVKKFVQAYQSDEVYEAANKVFNGGAVKGW”?
total protein half-life in vivo [10]: 5.86 ± 0.32 h; total protein half-life in vivo [11]: 6.85 ± 0.96 h; total protein half-life in vivo [12]: 6.15 ± 0.22 h; total protein half-life in vivo [1]: 6.95 ± 0.8 h; total protein half-life in vivo [2]: 5.84 ± 0.36 h; total protein half-life in vivo [3]: 3.04 ± 0.097 h; total protein half-life in vivo [4]: 6.52 ± 0.23 h; total protein half-life in vivo [5]: 11.6 ± 0.54 h; total protein half-life in vivo [6]: 5.85 ± 0.088 h; total protein half-life in vivo [7]: 12.69 ± 0.014 h; total protein half-life in vivo [8]: 5.99 ± 0.093 h; total protein half-life in vivo [9]: 13 ± 0.76 h

Which “total protein half-life in vivo” value [10] does the source give for “MAFRMSEQPRTIKIYNLLAGTNEFIGEGDAYIPPHTGLPANSTDIAPPDIPAGFVAVFNSDESSWHLVEDHRGKTVYDVASGNALFISELGPLPENVTWLSPEGEFQKWNGTAWVKDTEAEKLFRIREAEETKNNLMQVASEHIAPLQDAADLEIATEEEISLLEAWKKYRVLLNRVDTSTAQDIEWPALP” here?
Its value is 3.03 h.

And the “total protein half-life in vivo” value [11]?
Its value is 2.56 h.

What about the “total protein half-life in vivo” value [12] of the same sequence?
The value was 1.99 h.

And the “total protein half-life in vivo” value [2]?
The value was 1.99 h.

What about the “total protein half-life in vivo” value [3] of the same sequence?
Its value is 1.9 h.

And the “total protein half-life in vivo” value [4]?
Its value is 2.42 ± 0.94 h.

What about the “total protein half-life in vivo” value [5] of the same sequence?
Its value is 5.44 h.

And the “total protein half-life in vivo” value [6]?
The value was 3.48 h.

What about the “total protein half-life in vivo” value [8] of the same sequence?
The value was 3.08 h.

And the “total protein half-life in vivo” value [9]?
The value was 7.47 ± 0.83 h.

What does the source list for “MAFSQAVSGLNAAATNLDVIGNNIANSATYGFKSGTASFADMFAGSKVGLGVKVAGITQDFTDGTTTNTGRGLDVAISQNGFFRLVDSNGSVFYSRNGQFKLDENRNLVNMQGLQLTGYPATGTPPTIQQGANPTNISIPNTLMAAKTTTTASMQINLNSSDPLPTVTPFSASNADSYNKKGSVTVFDSQGNAHDMSVYFVKTGDNNWQVYTQDSSDPNSIAKTATTLEFNANGTLVDGAMANNIATGAINGAEPATFSLSFLNSMQQNTGANNIVATTQNGYKPGDLVSYQINDDGTVVGNYSNEQTQLLGQIVLANFANNEGLASEGDNVWSATQSSGVALLGTAGTGNFGTLTNGALEASNVDLSKELVNMIVAQRNYQSNAQTIKTQDQILNTLVNLR”?
total protein half-life in vivo [10]: 3.24 ± 0.9 h; total protein half-life in vivo [11]: 7.78 h; total protein half-life in vivo [2]: > 8 h; total protein half-life in vivo [3]: 1.2 ± 0.066 h; total protein half-life in vivo [4]: 2.23 ± 0.38 h; total protein half-life in vivo [5]: 3.51 ± 0.74 h

With “MAFTPFPPRQPTASARLPLTLMTLDDWALATITGADSEKYMQGQVTADVSQMAEDQHLLAAHCDAKGKMWSNLRLFRDGDGFAWIERRSVREPQLTELKKYAVFSKVTIAPDDERVLLGVAGFQARAALANLFSELPSKEKQVVKEGATTLLWFEHPAERFLIVTDEATANMLTDKLRGEAELNNSQQWLALNIEAGFPVIDAANSGQFIPQATNLQALGGISFKKGCYTGQEMVARAKFRGANKRALWLLAGSASRLPEAGEDLELKMGENWRRTGTVLAAVKLEDGQVVVQVVMNNDMEPDSIFRVRDDANTLHIEPLPYSLEE [P0ADE8]” as the sequence, how does the “total protein half-life in vivo” value [10] read?
Its value is 5.041 ± 0.022 h.

What about the “total protein half-life in vivo” value [11] of the same sequence?
The value was 4.7 ± 0.35 h.

And the “total protein half-life in vivo” value [12]?
The value was 5.202 ± 0.032 h.

What about the “total protein half-life in vivo” value [1] of the same sequence?
Its value is 5.31 ± 0.23 h.

What about the “total protein half-life in vivo” value [2] of the same sequence?
Its value is 4.327 ± 0.0059 h.

What about the “total protein half-life in vivo” value [3] of the same sequence?
The value was 2.8172 ± 0.0011 h.

What about the “total protein half-life in vivo” value [4] of the same sequence?
The value was 5.45 ± 0.19 h.

And the “total protein half-life in vivo” value [5]?
The value was 9.03 ± 1.1 h.

And the “total protein half-life in vivo” value [6]?
Its value is 5.25 ± 0.67 h.

What about the “total protein half-life in vivo” value [7] of the same sequence?
The value was 7.936 ± 0.018 h.

And the “total protein half-life in vivo” value [8]?
Its value is 5.54 ± 0.069 h.

What about the “total protein half-life in vivo” value [9] of the same sequence?
Its value is 11.3 ± 1.9 h.

With “MAGKTMIPLLAFAAWSGTGKTTLLKKLIPALCARGIRPGLIKHTHHDMDVDKPGKDSYELRKAGAAQTIVASQQRWALMTETPDEEELDLQFLASRMDTSKLDLILVEGFKHEEIAKIVLFRDGAGHRPEELVIDRHVIAVASDVPLNLDVALLDINDVEGLADFVVEWMQKQNG” as the sequence, how does the “total protein half-life in vivo” value [10] read?
Its value is 4.44 ± 0.4 h.

And the “total protein half-life in vivo” value [11]?
Its value is 4.61 h.

And the “total protein half-life in vivo” value [12]?
Its value is 4.37 ± 0.056 h.

And the “total protein half-life in vivo” value [1]?
Its value is 4.48 ± 0.64 h.

And the “total protein half-life in vivo” value [2]?
Its value is 3.88 ± 0.7 h.

And the “total protein half-life in vivo” value [3]?
Its value is 3.22 ± 0.15 h.

And the “total protein half-life in vivo” value [4]?
Its value is 5.23 ± 0.18 h.

What about the “total protein half-life in vivo” value [5] of the same sequence?
Its value is 9.51 h.

And the “total protein half-life in vivo” value [6]?
Its value is 4.01 ± 0.23 h.

What about the “total protein half-life in vivo” value [7] of the same sequence?
The value was 5.54 ± 1.1 h.

And the “total protein half-life in vivo” value [8]?
Its value is 5.85 h.

And the “total protein half-life in vivo” value [9]?
The value was 11 ± 0.32 h.
